From US20230174628A1 come the findings set out here.

This experiment addresses RBD of the recombinantly expressed S protein (SARS-CoV-2) (UniProt P0DTC2). Put plainly: ELISA, plate coated with RBD at 0.01 µg/ml, HRP goat anti-human IgG Fc. (An ELISA detects its analyte on a solid surface through an enzyme-linked reagent.)

For the substance Irrelevant antibody, the OD450 reading came to 0.006 OD450.
